The text below walks through data of publication PMC8246649 (Biochemistry, 2021).

No end group written: not given here. *: point of attachment. Myristoyl = CCCCCCCCCCCCCC(=O)*

B1: FMNL1 peptide Myr-GNAAGSAEQPAGK-FAM (peptide)
peptide: Myristoyl-GNAAGSAEQPAGK(FAM)
B2: UNC119B, full-length, C-terminal His6 (natural protein)
chain: not shown

For one experiment, the target named is UNC119A, full-length, C-terminal His6 (human, UniProt Q13432 1-240). The experiment in a line: fluorescence polarisation. (In general: Polarisation of emitted light reports the rotation of a fluorescent probe.)
For the molecule Myristoyl-GCTVSAEDK(FAM) [GNAI2 peptide Myr-GCTVSAEDK-FAM], the binding result is given as “binds”.

With Myristoyl-GTASSLVSPAGGK(FAM) [NPHP3 peptide Myr-GTASSLVSPAGGK-FAM], binding was put at a Kd of 0.84 nM.

For Myristoyl-GAAASRRRAK(FAM) [NSMF peptide Myr-GAAASRRRAK-FAM], the binding result is given as “binds”.

Myristoyl-GNAAAAKKGK(FAM) [PKA peptide Myr-GNAAAAKKGK-FAM]: the binding result was “binds”.

On to Myristoyl-GAGASAEEKHSRK(FAM) [GNAT1 peptide Myr-GAGASAEEKHSRK-FAM], for which the binding result is reported as “binds”.

Take B1: the binding result is given as “binds”.

With Myristoyl-GGAVSAGEDNDDK(FAM) [PCMTD1 peptide Myr-GGAVSAGEDNDDK-FAM], the equilibrium dissociation constant (Kd) (in general, the concentration at which binding is half-saturated) worked out at 5.25 nM.

For a further experiment, the target named is B2. The experiment in a line: fluorescence polarisation.
As to GCGCSSHPEDK (not fully specified; N-terminal myristoyl on Gly; FAM on the C-terminal Lys) [LCK peptide Myr-GCGCSSHPEDK-FAM], the Kd is 0.37 nM.

Turning to Myristoyl-GCTVSAEDK(FAM) [GNAI2 peptide Myr-GCTVSAEDK-FAM], the binding result is reported as “binds”.

In turn, Myristoyl-GTASSLVSPAGGK(FAM) [NPHP3 peptide Myr-GTASSLVSPAGGK-FAM] yielded a Kd of 0.17 nM.

For Myristoyl-GAAASRRRAK(FAM) [NSMF peptide Myr-GAAASRRRAK-FAM], the binding result is given as “binds”.

With Myristoyl-GNAAAAKKGK(FAM) [PKA peptide Myr-GNAAAAKKGK-FAM], the binding result is on record as “binds”.

As for Myristoyl-GAGASAEEKHSRK(FAM) [GNAT1 peptide Myr-GAGASAEEKHSRK-FAM], the binding result is recorded as “binds”.

For B1, the binding result is “binds”.

Myristoyl-GGAVSAGEDNDDK(FAM) [PCMTD1 peptide Myr-GGAVSAGEDNDDK-FAM] returned a Kd of 72.6 nM.

The target in the next experiment is B1. The experiment in a line: fluorescence polarisation.
With B2, the “fold lower affinity than to UNC119A” value was 9.5 fold.
